From PMC2850170 (The Biochemical journal, 2009)

Biological target: the molecule itself
Assay: SEC

B1: murine hexosaminidase D, short form (enzyme, mouse, UniProt Q3U4H6 1-486, looked up)
chain: MSSPTPFKMRLVHLDLKGAPPKVSYLSEVFPLFHALGANGLLIEYEDMFPYEGHLRLLRAKHAYSPSEVTEILRLARLSELEVIPLVQTFGHMEFVLKHAAFAHLREVALFPNTLNPHEAESLALVQAMIDQILELHRDVRWLHIGCDEVYYLGEGETSKQWLQQEQNSHAKLCLSHMQAVASHVLTQHPGVTPLVWDDMLRDIPQEQLKASGVPQLVEPVLWDYGADLDVHGKVFLIGKYQECGFQRLWAASAFKGATGASQALPPVEHHIRNHELWLQVAGSGPKDALQGIILTGWQRYDHFSVLCELLPVGIPSLAACLQSLVHGGFAEDVRLRAERFLGVSSLEIADTVSEGAGSFPGSDIHALVTQISLHLRSSVDTLLERNRYVTGWFSPYHRRRKLVHPVMIQHIQPEALSLLSRWNNLVQQLEVALQPVFYPDTIEEWLEENVLPSLQRLQDLLQDLGEAAARQPPPTSPGWDTGQNP
stoichiometry N: 2
